# Test system: Escherichia coli TOP10
# Assay: shrunken log2 fold change of peptide-encoding DNA abundance (4.5 h post-induction vs induction); higher = less antimicrobial activity (less host growth inhibition)
# Conditions: time post-induction: 4.5 h; library: site-saturation at positions 5, 18, 19, 20
# 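Note: peptides expressed intracellularly from a pBAD plasmid library in pooled LB shake-flask culture, induced with 0.3% L-arabinose, DNA abundance read by NGS, three biological replicates, DESeq2 with apeglm shrinkage.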
row,Sequence,shrunken log2 fold change
1,RRIRARPPRLPRPRPRPGPEPRP,1.61
2,RRIRIRPPRLPRPRPRPTEAPRP,-0.153
3,RRIRERPPRLPRPRPRPRTWPRP,-0.149
4,RRIRWRPPRLPRPRPRPERYPRP,0.142
5,RRIRIRPPRLPRPRPRPKVTPRP,-0.386
6,RRIRHRPPRLPRPRPRPEIQPRP,-0.102
7,RRIRCRPPRLPRPRPRPYWQPRP,-0.419
8,RRIRWRPPRLPRPRPRPVGCPRP,0.575
9,RRIRFRPPRLPRPRPRPYHCPRP,0.0331
10,RRIRLRPPRLPRPRPRPGGHPRP,0.0643
11,RRIRDRPPRLPRPRPRPQCTPRP,0.191
12,RRIRTRPPRLPRPRPRPGTWPRP,-0.0246
13,RRIRSRPPRLPRPRPRPYVVPRP,-0.314
14,RRIRLRPPRLPRPRPRPDRIPRP,-0.123
15,RRIRYRPPRLPRPRPRPQCRPRP,-0.23
16,RRIRVRPPRLPRPRPRPHWRPRP,0.306
17,RRIRPRPPRLPRPRPRPRWQPRP,0.754
18,RRIRHRPPRLPRPRPRPHRSPRP,-0.0796
19,RRIRPRPPRLPRPRPRPFYFPRP,-0.387
20,RRIRDRPPRLPRPRPRPAEQPRP,0.0426
21,RRIRIRPPRLPRPRPRPHTSPRP,-1.18
22,RRIRMRPPRLPRPRPRPDAQPRP,2.65
23,RRIRCRPPRLPRPRPRPRYNPRP,-0.465
24,RRIRFRPPRLPRPRPRPAVMPRP,0.248
25,RRIRERPPRLPRPRPRPAYRPRP,-0.429

row,Sequence,shrunken log2 fold change
1,RRIRHRPPRLPRPRPRPFPFPRP,-0.758
2,RRIRNRPPRLPRPRPRPRIWPRP,0.0945
3,RRIRKRPPRLPRPRPRPPYHPRP,0.0273
4,RRIRVRPPRLPRPRPRPWIHPRP,-0.349
5,RRIRRRPPRLPRPRPRPFRLPRP,-0.143
6,RRIRYRPPRLPRPRPRPWPVPRP,0.0536
7,RRIRHRPPRLPRPRPRPAFCPRP,0.0444
8,RRIRRRPPRLPRPRPRPVWAPRP,0.339
9,RRIRSRPPRLPRPRPRPNGHPRP,-0.0925
10,RRIRGRPPRLPRPRPRPLQEPRP,1.56
11,RRIRYRPPRLPRPRPRPLTPPRP,0.0282
12,RRIRQRPPRLPRPRPRPHTYPRP,-0.753
13,RRIRNRPPRLPRPRPRPNDWPRP,0.0943
14,RRIRMRPPRLPRPRPRPAGWPRP,1.37
15,RRIRHRPPRLPRPRPRPLHNPRP,-0.602
16,RRIRIRPPRLPRPRPRPISEPRP,-0.492
17,RRIRKRPPRLPRPRPRPHELPRP,0.509
18,RRIRGRPPRLPRPRPRPWYCPRP,-0.408
19,RRIRNRPPRLPRPRPRPGHEPRP,-0.265
20,RRIRKRPPRLPRPRPRPGIRPRP,0.267
21,RRIRYRPPRLPRPRPRPVGDPRP,-0.0659
22,RRIRTRPPRLPRPRPRPFMAPRP,-0.0759
23,RRIRLRPPRLPRPRPRPAGNPRP,0.116
24,RRIRMRPPRLPRPRPRPTCGPRP,0.942
25,RRIRCRPPRLPRPRPRPGCGPRP,0.545

row,Sequence,shrunken log2 fold change
1,RRIRNRPPRLPRPRPRPWVPPRP,-1.03
2,RRIRGRPPRLPRPRPRPLESPRP,1.12
3,RRIRMRPPRLPRPRPRPNPKPRP,0.023
4,RRIRFRPPRLPRPRPRPIVTPRP,-0.075
5,RRIRGRPPRLPRPRPRPLGTPRP,0.736
6,RRIRLRPPRLPRPRPRPPSKPRP,0.148
7,RRIRWRPPRLPRPRPRPMVSPRP,-0.0339
8,RRIRARPPRLPRPRPRPRHRPRP,0.412
9,RRIRERPPRLPRPRPRPTWAPRP,0.115
10,RRIRYRPPRLPRPRPRPCLRPRP,-0.286
11,RRIRMRPPRLPRPRPRPNIQPRP,-0.112
12,RRIRQRPPRLPRPRPRPCRPPRP,-0.184
13,RRIRMRPPRLPRPRPRPMFTPRP,0.0379
14,RRIRHRPPRLPRPRPRPPSNPRP,0.0232
15,RRIRKRPPRLPRPRPRPGTTPRP,0.157
16,RRIRSRPPRLPRPRPRPMDSPRP,-0.279
17,RRIRGRPPRLPRPRPRPPLTPRP,0.971
18,RRIRWRPPRLPRPRPRPYCSPRP,-0.0518
19,RRIRQRPPRLPRPRPRPARKPRP,0.0862
20,RRIRTRPPRLPRPRPRPSLTPRP,-0.452
21,RRIRWRPPRLPRPRPRPMATPRP,0.26
22,RRIRQRPPRLPRPRPRPKGPPRP,-0.201
23,RRIRTRPPRLPRPRPRPPSSPRP,-0.00871
24,RRIRMRPPRLPRPRPRPPIEPRP,0.309
25,RRIRFRPPRLPRPRPRPEFPPRP,-0.132

row,Sequence,shrunken log2 fold change
1,RRIRWRPPRLPRPRPRPKKSPRP,0.395
2,RRIRFRPPRLPRPRPRPADFPRP,-0.09
3,RRIRWRPPRLPRPRPRPTYHPRP,-0.0794
4,RRIRRRPPRLPRPRPRPLEIPRP,0.0856
5,RRIRLRPPRLPRPRPRPHDWPRP,0.184
6,RRIRMRPPRLPRPRPRPYHHPRP,-0.702
7,RRIRARPPRLPRPRPRPIMMPRP,-0.245
8,RRIRRRPPRLPRPRPRPFIAPRP,-0.253
9,RRIRCRPPRLPRPRPRPPHEPRP,1.23
10,RRIRQRPPRLPRPRPRPKNPPRP,-0.26
11,RRIRQRPPRLPRPRPRPIPIPRP,-0.104
12,RRIRDRPPRLPRPRPRPFNPPRP,-0.509
13,RRIRPRPPRLPRPRPRPEWHPRP,1.23
14,RRIRERPPRLPRPRPRPGDKPRP,-0.315
15,RRIRSRPPRLPRPRPRPFWTPRP,0.131
16,RRIRPRPPRLPRPRPRPFCWPRP,0.447
17,RRIRWRPPRLPRPRPRPRGEPRP,0.397
18,RRIRYRPPRLPRPRPRPYQWPRP,-0.257
19,RRIRGRPPRLPRPRPRPPDIPRP,0.514
20,RRIRTRPPRLPRPRPRPVIYPRP,0.721
21,RRIRARPPRLPRPRPRPEYVPRP,0.0744
22,RRIRARPPRLPRPRPRPGKMPRP,-0.0572
23,RRIRFRPPRLPRPRPRPPPPPRP,1.58
24,RRIRPRPPRLPRPRPRPWKSPRP,0.0643
25,RRIRFRPPRLPRPRPRPYRNPRP,-0.00237

row,Sequence,shrunken log2 fold change
1,RRIRQRPPRLPRPRPRPQPQPRP,0.0436
2,RRIRERPPRLPRPRPRPQHGPRP,-0.102
3,RRIRDRPPRLPRPRPRPTYWPRP,0.01
4,RRIRDRPPRLPRPRPRPSTFPRP,0.11
5,RRIRWRPPRLPRPRPRPTDIPRP,-0.151
6,RRIRIRPPRLPRPRPRPHQWPRP,-0.246
7,RRIRQRPPRLPRPRPRPTNGPRP,-0.0973
8,RRIRARPPRLPRPRPRPFVYPRP,-0.116
9,RRIRIRPPRLPRPRPRPMGDPRP,-0.114
10,RRIRLRPPRLPRPRPRPNCMPRP,-0.415
11,RRIRFRPPRLPRPRPRPREAPRP,0.115
12,RRIRARPPRLPRPRPRPWQFPRP,0.456
13,RRIRARPPRLPRPRPRPLIPPRP,0.449
14,RRIRIRPPRLPRPRPRPDQWPRP,0.0363
15,RRIRERPPRLPRPRPRPYFDPRP,-0.926
16,RRIRCRPPRLPRPRPRPDNEPRP,-0.229
17,RRIRKRPPRLPRPRPRPEQTPRP,1.15
18,RRIRRRPPRLPRPRPRPSKRPRP,-0.0523
19,RRIRDRPPRLPRPRPRPNGYPRP,-0.36
20,RRIRQRPPRLPRPRPRPWLWPRP,0.145
21,RRIRHRPPRLPRPRPRPNVMPRP,0.0213
22,RRIRPRPPRLPRPRPRPTSMPRP,-0.0129
23,RRIRWRPPRLPRPRPRPFLLPRP,-0.0846
24,RRIRMRPPRLPRPRPRPKKYPRP,1.26
25,RRIRPRPPRLPRPRPRPYRNPRP,-0.558

row,Sequence,shrunken log2 fold change
1,RRIRKRPPRLPRPRPRPDLKPRP,0.131
2,RRIRPRPPRLPRPRPRPTQSPRP,0.436
3,RRIRKRPPRLPRPRPRPCWIPRP,-0.0557
4,RRIRKRPPRLPRPRPRPLWRPRP,0.609
5,RRIRKRPPRLPRPRPRPGFRPRP,0.942
6,RRIRQRPPRLPRPRPRPALKPRP,0.0439
7,RRIRERPPRLPRPRPRPVTEPRP,-0.255
8,RRIRLRPPRLPRPRPRPDPCPRP,-0.0403
9,RRIRDRPPRLPRPRPRPRCYPRP,0.105
10,RRIRHRPPRLPRPRPRPLMWPRP,-0.218
11,RRIRARPPRLPRPRPRPQTIPRP,-0.196
12,RRIRMRPPRLPRPRPRPADLPRP,0.752
13,RRIRYRPPRLPRPRPRPRMHPRP,-0.156
14,RRIRARPPRLPRPRPRPAMHPRP,0.589
15,RRIRTRPPRLPRPRPRPYWSPRP,0.00748
16,RRIRARPPRLPRPRPRPWGPPRP,-0.119
17,RRIRGRPPRLPRPRPRPCRYPRP,0.24
18,RRIRIRPPRLPRPRPRPGTHPRP,-0.431
19,RRIRNRPPRLPRPRPRPKSIPRP,-0.569
20,RRIRGRPPRLPRPRPRPAIEPRP,0.942
21,RRIRERPPRLPRPRPRPNRSPRP,-0.0779
22,RRIRMRPPRLPRPRPRPFHVPRP,-0.726
23,RRIRGRPPRLPRPRPRPTSTPRP,1.05
24,RRIRLRPPRLPRPRPRPYPNPRP,-1.27
25,RRIRGRPPRLPRPRPRPTKNPRP,0.69
